Measured values taken from article PMC6457909 (Science (New York, N.Y.), 2019).

Molecular target: H5N1 A/Vietnam/1203/2004 hemagglutinin, trypsin-cleaved (HA1/HA2), as crystallised with JNJ4796 (influenza A virus H5N1 A/Vietnam/1203/2004) (UniProt Q5EP31)
Assay: crystal structure

H5N1 A/Vietnam/1203/2004 hemagglutinin, trypsin-cleaved (HA1/HA2), as crystallised with JNJ4796 (from UniProt Q5EP31 1-568; Q5EP31 1-568) (natural protein)
stoichiometry N: 3
